Measured values reported in patent publication US20240010747A1, “ANTI-MRP4 (ENCODED BY ABCC4 GENE) ANTIBODIES AND USES THEREOF” (Kenjockety Biotechnology, Inc., priority 2020, published 2024).

T1: human ABCC4 (Homo sapiens, UniProt O15439)
T1 construct: expressed in transfected cells
T1 sequence (O15439 1-1325): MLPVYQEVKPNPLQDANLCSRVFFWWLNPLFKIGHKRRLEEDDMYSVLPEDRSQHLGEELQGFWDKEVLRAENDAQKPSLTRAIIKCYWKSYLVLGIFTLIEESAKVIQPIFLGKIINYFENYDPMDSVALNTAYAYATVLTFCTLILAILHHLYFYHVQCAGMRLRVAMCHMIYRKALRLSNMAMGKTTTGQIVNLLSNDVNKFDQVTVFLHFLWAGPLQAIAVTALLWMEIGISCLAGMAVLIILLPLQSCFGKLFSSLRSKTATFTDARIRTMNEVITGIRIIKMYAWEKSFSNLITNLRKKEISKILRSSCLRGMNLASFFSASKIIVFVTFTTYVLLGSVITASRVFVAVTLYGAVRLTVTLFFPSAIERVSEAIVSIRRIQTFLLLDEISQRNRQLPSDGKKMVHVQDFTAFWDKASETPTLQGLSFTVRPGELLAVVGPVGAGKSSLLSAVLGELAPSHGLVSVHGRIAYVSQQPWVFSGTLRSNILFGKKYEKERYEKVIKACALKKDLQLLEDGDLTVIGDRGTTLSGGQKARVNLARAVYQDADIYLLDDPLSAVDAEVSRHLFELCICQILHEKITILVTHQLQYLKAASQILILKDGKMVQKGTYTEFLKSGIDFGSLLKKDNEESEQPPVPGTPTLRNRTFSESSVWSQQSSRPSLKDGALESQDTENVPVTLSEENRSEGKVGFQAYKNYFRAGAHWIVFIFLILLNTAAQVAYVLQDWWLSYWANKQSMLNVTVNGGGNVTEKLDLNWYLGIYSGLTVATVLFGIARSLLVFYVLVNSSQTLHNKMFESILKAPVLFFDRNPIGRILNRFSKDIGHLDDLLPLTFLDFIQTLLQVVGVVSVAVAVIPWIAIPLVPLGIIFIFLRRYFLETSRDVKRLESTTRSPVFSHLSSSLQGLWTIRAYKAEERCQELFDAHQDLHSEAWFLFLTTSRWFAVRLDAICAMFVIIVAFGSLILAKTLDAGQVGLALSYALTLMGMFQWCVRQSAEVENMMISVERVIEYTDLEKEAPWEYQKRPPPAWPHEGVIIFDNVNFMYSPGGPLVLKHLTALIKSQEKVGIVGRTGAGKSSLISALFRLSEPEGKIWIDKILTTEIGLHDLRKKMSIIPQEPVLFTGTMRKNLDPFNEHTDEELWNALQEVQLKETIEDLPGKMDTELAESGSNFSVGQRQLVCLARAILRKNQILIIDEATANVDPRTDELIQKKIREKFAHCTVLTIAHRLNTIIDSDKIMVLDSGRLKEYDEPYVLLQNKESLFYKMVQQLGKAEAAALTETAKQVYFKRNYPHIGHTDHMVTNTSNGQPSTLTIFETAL

T2: human ABCC4 (human, UniProt O15439 1-1325)
T2 construct: Expressed on murine C6 cells stably transfected with human ABCC4 cDNA with C-terminal FLAG tag; also called MRP4; Multidrug resistance protein 4; not shown: C-terminal fused FLAG tag
T2 sequence: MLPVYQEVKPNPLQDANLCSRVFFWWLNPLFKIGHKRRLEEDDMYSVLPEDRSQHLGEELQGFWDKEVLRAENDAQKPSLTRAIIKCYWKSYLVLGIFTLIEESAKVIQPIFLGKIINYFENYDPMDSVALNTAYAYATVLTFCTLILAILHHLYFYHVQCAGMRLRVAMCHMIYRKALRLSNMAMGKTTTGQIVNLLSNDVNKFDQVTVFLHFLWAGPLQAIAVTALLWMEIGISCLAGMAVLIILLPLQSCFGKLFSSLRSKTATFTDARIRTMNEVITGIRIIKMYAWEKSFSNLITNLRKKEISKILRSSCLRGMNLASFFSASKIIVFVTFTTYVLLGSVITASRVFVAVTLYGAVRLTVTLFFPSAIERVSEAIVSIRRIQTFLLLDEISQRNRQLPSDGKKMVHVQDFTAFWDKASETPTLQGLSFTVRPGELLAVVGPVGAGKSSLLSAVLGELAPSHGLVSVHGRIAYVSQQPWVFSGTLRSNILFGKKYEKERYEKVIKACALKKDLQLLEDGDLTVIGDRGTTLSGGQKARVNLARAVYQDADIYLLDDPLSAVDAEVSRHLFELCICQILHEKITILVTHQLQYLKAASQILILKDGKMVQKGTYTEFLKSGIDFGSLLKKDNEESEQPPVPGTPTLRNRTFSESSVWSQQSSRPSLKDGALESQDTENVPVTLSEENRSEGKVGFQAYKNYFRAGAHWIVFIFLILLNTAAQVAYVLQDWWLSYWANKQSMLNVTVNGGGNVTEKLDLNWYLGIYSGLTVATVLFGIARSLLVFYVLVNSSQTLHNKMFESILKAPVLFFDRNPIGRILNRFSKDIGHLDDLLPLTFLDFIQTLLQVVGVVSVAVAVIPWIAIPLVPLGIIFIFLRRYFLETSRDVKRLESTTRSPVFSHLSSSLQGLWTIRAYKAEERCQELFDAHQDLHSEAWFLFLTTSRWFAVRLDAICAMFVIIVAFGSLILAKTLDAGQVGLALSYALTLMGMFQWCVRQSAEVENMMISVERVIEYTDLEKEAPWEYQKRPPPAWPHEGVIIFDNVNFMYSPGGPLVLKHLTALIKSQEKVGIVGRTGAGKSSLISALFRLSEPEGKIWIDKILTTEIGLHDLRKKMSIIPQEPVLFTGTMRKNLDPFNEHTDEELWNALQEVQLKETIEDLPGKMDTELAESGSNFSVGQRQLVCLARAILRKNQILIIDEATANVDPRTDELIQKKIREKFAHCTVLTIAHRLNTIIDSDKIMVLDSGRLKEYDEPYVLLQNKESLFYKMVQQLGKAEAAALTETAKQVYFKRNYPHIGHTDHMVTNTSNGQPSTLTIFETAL


Experiments:
[1] = target: T1, human ABCC4; experiment: Flow cytometry (FACS) binding to C6 cells stably transfected to express human ABCC4 (different experiment, Table 4); conditions: for Human ABCC4 binding: C6 cells stably transfected to express human ABCC4, FACS, different experiment, Table 4; for binding to human ABCC4 expressed on cell surface: Table 4 study, stated in words
In short: (§1)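 Murine C6 cells stably expressing FLAG-tagged human or cynomolgus ABCC4 incubated 30 min on ice with antibodies, either 5 ug/mL or serially diluted from 100 ug/mL, in PBS+2% FBS+0.02% azide. Detection with PE anti-human IgG F(ab′)2 by flow cytometry; EC50 at half-maximal MFI; negative below background, positive >3× background.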

[2] = tested on: cynomolgus ABCC4; experiment: Flow cytometry (FACS) binding to C6 cells stably transfected to express cynomolgus ABCC4 (different experiment, different C6.cC4 cell line, Table 4); parameters: key to Cynomolgus ABCC4 binding: Negative (−)=Rmax (MFI) below background level; Positive (+)=MFI>3× background level; conditions: for Cynomolgus ABCC4 binding: different C6.cC4 cell line, C6 cells stably transfected to express cynomolgus ABCC4, FACS, Table 4; for binding to cynomolgus ABCC4 expressed on cell surface: Table 4 study, stated in words
In short: as §1

[3] = tested on: cynomolgus ABCC4; experiment: Flow cytometry (FACS) binding to C6 cells stably transfected to express cynomolgus ABCC4 (Table 3 study); parameters: key to Cynomolgus ABCC4 binding: Negative (−) is defined as maximum response (Rmax(MFI)) below background level; Positive (+) is defined as MFI>1000; conditions: C6 cells stably transfected to express cynomolgus ABCC4, FACS; Table 3
Method: (§2) Binding titration of recombinant antibodies to ABCC4 transfectants was performed by serial dilution of antibodies from about 666 nM. Diluted antibody in flow cytometry buffer was incubated with cells on ice for 30 min. After 2 washes with flow cytometry buffer, bound antibody was detected with PE-labeled F(ab′)2 fragment goat anti-human IgG (Jackson ImmunoResearch) diluted 1:200 in flow cytometry buffer and incubated with cells for 20 min on ice. After 2 washes with flow cytometry buffer fluorescence was measured on an Attune N×T flow cytometer. Data were analyzed with GraphPad Prism 8.0 software to determine EC50's.
(§3) Human embryonic kidney HEK 293T cells and murine C6 (ATCC CCL-107) were transfected with human or cynomolgus ABCC4 cDNA with C-terminal fused FLAG tag in a pMONO-hygro vector with Lipofectamine 3000 (Invitrogen #L3000001). The cells were treated with 0.2 mg/ml and 0.5 mg/ml hygromycin respectively for about 2 weeks while cultivated in DMEM and 10% FBS with 0.2 mg/ml hygromycin and 0.5 mg/ml hygromycin, respectively. The cells were washed with PBS, and stained with […] of anti-FLAG-PE after fixing and permeablization. Clones expressing ABCC4 were single-cell sorted into 200 μl DMEM with 10% FBS using a BD Aria FACS machine and cultivated in 96 well plates using standard techniques in an incubator at 37° C. and 5% CO 2. Two weeks later clones expressing high levels of ABCC4 were screened and amplified.
(§4) Antibody binding to cells was evaluated by flow cytometry. Murine C6 cells stably transfected to express human or cynomolgus ABCC4 were washed once in flow cytometry buffer (PBS+2% FBS+0.02% sodium azide), resuspended at 2×10^6 cells/mL in flow cytometry buffer, and dispensed into 96-well microtiter plates at 0.1 mL/well. Recombinant antibodies were added to cells at 5 ug/mL for initial binding confirmation, or serially diluted from 100 ug/mL in flow cytometry buffer. After incubating cells on ice for 30 min, cells were washed twice with flow cytometry buffer. Bound antibody was detected with PE-labeled F(ab′)2 fragment goat anti-human IgG (Jackson ImmunoResearch) and evaluated on an Attune N×T flow cytometer. EC50 is calculated to be the concentration of antibody that gives half maximal response.
(§5) Table 3 lists the following characteristics of the rat anti-ABCC4 antibodies tested: binding to C6 cells stably transfected to express human ABCC4 measured by FACS and binding to C6 cells stably transfected to express cynomolgus ABCC4 measured by FACS. Negative (−) is defined as maximum response (Rmax(MFI)) below background level. Positive (+) is defined as MFI>1000.

[4] = target: T1, human ABCC4; experiment: Flow cytometry (FACS) binding to C6 cells stably transfected to express human ABCC4 (Table 3 study); conditions: C6 cells stably transfected to express human ABCC4, FACS; Table 3
Method: as §2, §3, §4, §5

[5] = target: T2, human ABCC4; experiment: FACS, C6 cells stably expressing human ABCC4; + = MFI>3x background
Method: as §4, with “2×10\hat{ }6” for “2×10^6”, “F(ab′)₂” for “F(ab′)2”

Molecule	Human ABCC4 binding [1]	Cynomolgus ABCC4 binding [2]	Cynomolgus ABCC4 binding [3]	Human ABCC4 binding [4]	binding to human ABCC4 expressed on cell surface [1]	binding to cynomolgus ABCC4 expressed on cell surface [2]	binding result [5]
C4.925: anti-ABCC4 antibody raised in rats; VH SEQ ID NO: 3, VL SEQ ID NO: 126 (antibody, V domains shown) VH: EVQLVESGGGLVQPGRSLKLSCAASGFTFSDYYMAWVRQAPTKGLEWVAYINYDGGSTHYGDSVKGRFTISRDNEKSTLYLQMNSLRSEDMATYYCARENYGYNSFDYWGQGASVTVSS VL: DIQVTQSPASLSASLGETISIECLTSEDISSYLTWYQQKPGKSPHLLIYGANSLQAGVPSRFSGSGSGTQYSLKISSMQPEDEGDYFCQQSYKFPLTFGSGTKLELK	+ (Positive (+)=MFI>3× background level)	−	−	+ (Positive (+) is defined as MFI>1000)			
C4.1054 (antibody, V domains shown) VH: QVQLLQSGAALVKPGASVKMSCKPSGYTFTDYWVSWVKQSHGKSLEWIGEIYPNNGATNFNEKFKGKATLTVDKSTSTAYMELSRLTSEDSAIYYCPSRKYGYNWNFDYWGQGTMVTVSS VL: DIVLTQSPALAVSLGQRATISCRARQSVSISRYNLMHWYQQKPGQQPKVLIYRASNLASGIPARFSGSGSGTDFTLTIDPVQADDIATYYCQQSRDSPWTFGGGTKLELK	+ (Positive (+)=MFI>3× background level)	+ (Positive (+)=MFI>3× background level)			bind to both human and cynomolgus ABCC4	bind to both human and cynomolgus ABCC4	binds
C4.1131 (antibody, V domains shown) VH: EVKLVESDGGLVQPRKSLKLSCAASGFTFTDYYMAWVRQGPTMGLEWVATISNDGSTKYYRDSVKGRFTLSRDNAKTTLHLQMDSLRSEDTATYYCARLTIRYKGVMDAWGQGASVTVSS VL: DVVMTQSPSHLAASPGESVSINCKASKNIYKYLAWYQQKPGKTNKLLIYSGSTLQSGTPSRFSGSGSGSDFTLTIRNLEPEDFGLYYCQHHNEYPPTFGGGTKLEIK	+ (Positive (+)=MFI>3× background level)	+ (Positive (+)=MFI>3× background level)			bind to both human and cynomolgus ABCC4	bind to both human and cynomolgus ABCC4	binds
C4.1134 (antibody, V domains shown) VH: EVQLVESDGGLVQPGRSLKLSCAASGFTFSDFYMAWVRQAPTKGLEWIATISHDGRNTFYRDSVKGRFTISRDNAKRALYLQMDSLRSEDTATYYCASLTTRYKGVMEAWGQGASVTVSS VL: DVVMTQSPSHLAASPGESVSINCKASKNIYKYLAWYQQKPGKTNKLLIYSGSTLQSGTPSRFSGSGSGSDFTLTIRNLEPEDFGLYYCQHHNEYPPTFGGGTKLEIK	+ (Positive (+)=MFI>3× background level)	+ (Positive (+)=MFI>3× background level)			bind to both human and cynomolgus ABCC4	bind to both human and cynomolgus ABCC4	binds
C4.1152 (antibody, V domains shown) VH: EVKLVESDGGLVQPGRSLKLSCAASGFTFSDFYMAWVRQAPTKGLEWIASISHDGRNTYYRDSVKGRFTISRDNAKRTLYLQMDSLRSEDTATYYCASLTARYKGVMGAWGQGTLVTVSS VL: DVVMTQSPSHLAASPGESVSINCKASKNIYKYLAWYQQKPGKTNKLLIYSGSTLQSGTPSRFSGSGSGSDFTLTIRNLEPEDFGLYYCQHHNEYPPTFGGGTKLEIK	+ (Positive (+)=MFI>3× background level)	+ (Positive (+)=MFI>3× background level)			bind to both human and cynomolgus ABCC4	bind to both human and cynomolgus ABCC4	binds
